Patent US20230143604A1, “QW DOSING OF GIP RECEPTOR AGONIST PEPTIDE COMPOUNDS AND USES THEREOF” (TAKEDA PHARMACEUTICAL COMPANY LIMITED, priority 2020, published 2023)
Starred links: 1 amine or outer side, 2 acyl side, 3 side chain; linkers in the order of their positions; H or OH if unused. Non-standard residues stand in square brackets, D forms with d. Residues, ends and D or L forms follow the SMILES beside them. Groups on a side chain read outwards from the residue. No end group written: not given here. *: point of attachment. C18 diacid = O=C(O)CCCCCCCCCCCCCCCCC(=O)*; C17 diacid = O=C(O)CCCCCCCCCCCCCCCC(=O)*; γGlu = O=C(O)[C@H](CCC(=O)[*:2])N[*:1]; NMeY = CN[C@@H](Cc1ccc(O)cc1)C(=O)O; AEEA = NCCOCCOCC(=O)O; Aib = CC(C)(N)C(=O)O

How the values were obtained:
human GLP-1R = biological target: T1, human GLP-1R (Homo sapiens, UniProt P43220); assay: Human GLP1R agonist activity, intracellular cAMP accumulation; type: cell-based; settings: HEK-293T cells overexpressing human GLP-1R, 1 hr, read-out: Human GLP1R cAMP EC50, HEK293T
T1 construct: HEK-293T cells overexpressing full-length human GLP-1R; FLAG (N); host or cells: HEK-293T
T1 sequence (P43220 24-463): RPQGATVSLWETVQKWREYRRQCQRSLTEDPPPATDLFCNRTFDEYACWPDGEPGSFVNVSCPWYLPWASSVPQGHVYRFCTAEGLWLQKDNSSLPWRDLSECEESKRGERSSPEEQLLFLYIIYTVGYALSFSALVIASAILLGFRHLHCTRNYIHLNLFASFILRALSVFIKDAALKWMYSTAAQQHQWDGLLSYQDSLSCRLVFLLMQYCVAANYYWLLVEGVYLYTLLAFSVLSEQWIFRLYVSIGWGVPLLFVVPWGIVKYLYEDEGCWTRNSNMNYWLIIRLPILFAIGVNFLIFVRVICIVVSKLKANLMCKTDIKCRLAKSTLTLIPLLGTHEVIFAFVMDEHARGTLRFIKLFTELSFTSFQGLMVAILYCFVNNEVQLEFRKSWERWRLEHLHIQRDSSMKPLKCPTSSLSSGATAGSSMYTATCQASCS
Method in brief: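 cAMP accumulation is measured by HTRF after a 1 hr, room-temperature, dark exposure of thawed cells (4×10^5 cells/mL in Krebs Ringer buffer) to compound. Activity is scaled between DMSO alone as 0% and 1 nm GLP-1 as 100%.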

[1] = Pharmacokinetics in dog after IV and SC dosing; settings: in vivo; for half-life: IV 3 nmol/kg, read-out: IV T½ (converted); for MRT last: SC 3 nmol/kg, read-out: SC MRT 0-last
Protocol: Pharmacokinetic (PK) were conducted in dog in order to determine the half-life after IV and SC dosing. The peptide was dissolved in 10% DMSO/0.09% Polysorbate/PBS pH 7.4 to a concentration of 3 nmol/mL and the animal were dose with a volume of 1 mL/kg SC or IV. Blood sample were collected at 0, 0.033, 0.083, 0.25, 0.5, 1, 2, 4, 6, 8, 12, 24, 48, 72, 96, 120, 168, 336 hours for IV dosing and 0.25, 0.5, 1, 2, 4, 6, 8, 12, 24, 48, 72, 96, 120, 168, 336 for SC dosing, EDTA-K2 was used as anticoagulant. The plasma concentration of the peptide was measured using LCMS. Allometric scaling of lipidated peptide pharmacokinetics including T1/2 and MRT is known in the art for rodent to dog and mini pig and to humans. […] See for example, Discovery and Development of Liraglutide and Semaglutide. Knudsen, L. B.; Lau, J. Frontiers in Endocrinology, 2019, vol 10, Article 155.

[2] = Human plasma protein binding (PPB); type: in vitro ADME; settings: for free unbound peptide in human plasma (in words): judged for once per week (QW) dosing
Method in brief: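 Peptides spiked at 1000 nmol/L into pooled human K2-EDTA plasma adjusted to pH 7.4, incubated 30 min at 37 °C, then ultracentrifuged at ~450,000 g, 4 °C for 3 h. Fu derived from LC-MS/MS (MRM) peak area ratios, supernatant versus plasma.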

physchem = assay: physchem
Method in brief: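 Solubility at pH 7.4 determined by stepwise addition of 200 mM phosphate buffer in 100 μL increments to 3 mg peptide, mixing briefly each time, until no insoluble material remained, then measured by liquid chromatography.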

[3] = Dog plasma protein binding (PPB); type: in vitro ADME; settings: pH 7.4; fraction unbound; dog serum; read-out: Dog PPB (FUplasma)
Method in brief: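 Fraction unbound (Fu,plasma) is given as a percentage. It was measured with the method and analysis of the human protein-binding protocol, but using dog serum in place of human serum.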

dog plasma proteins = assay: plasma protein binding, ultracentrifugation, LC-MS/MS
human plasma proteins = assay: as above
[4] = biological target: full-length human GLP-1R with an N-terminal FLAG tag (human, UniProt P43220 24-463); assay: cell-based or functional assay
[5] = biological target: T2, full-length human GIPR with an N-terminal FLAG tag (human, UniProt P48546 22-466); assay: cell-based or functional assay
T2 sequence (looked up): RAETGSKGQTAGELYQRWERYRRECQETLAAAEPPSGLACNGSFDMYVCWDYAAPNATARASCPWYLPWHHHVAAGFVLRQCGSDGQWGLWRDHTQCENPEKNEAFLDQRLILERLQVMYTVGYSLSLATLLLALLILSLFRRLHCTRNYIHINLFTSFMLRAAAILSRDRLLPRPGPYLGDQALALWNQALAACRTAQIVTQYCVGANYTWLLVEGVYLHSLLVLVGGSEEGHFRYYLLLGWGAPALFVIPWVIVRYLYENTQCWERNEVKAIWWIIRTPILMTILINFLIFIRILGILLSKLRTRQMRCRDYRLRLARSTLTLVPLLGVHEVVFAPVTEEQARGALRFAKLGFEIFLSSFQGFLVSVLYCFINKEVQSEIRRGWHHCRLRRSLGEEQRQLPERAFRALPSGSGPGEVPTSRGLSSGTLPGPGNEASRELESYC

[6] = both sexes, pH 7.4, fraction unbound, human plasma, 1000 nmol/L peptide, ultracentrifugation, read-out: Human PPB (FUplasma)

Molecule: CC[C@H](C)[C@H](NC(=O)[C@H](Cc1ccccc1)NC(=O)[C@@H](NC(=O)CNC(=O)[C@H](CCC(=O)O)NC(=O)C(C)(C)NC(=O)[C@H](Cc1ccc(O)cc1)NC)[C@@H](C)O)C(=O)N[C@@H](CO)C(=O)N[C@@H](CC(=O)O)C(=O)N[C@@H](Cc1ccc(O)cc1)C(=O)N[C@@H](CO)C(=O)N[C@H](C(=O)NC(C)(C)C(=O)N[C@@H](CCCCNC(=O)CNC(=O)CNC(=O)CNC(=O)CNC(=O)CNC(=O)CCCCCCCCCCCCCCCCC(=O)O)C(=O)N[C@@H](CC(=O)O)C(=O)N[C@@H](CCCNC(=N)N)C(=O)NC(C)(C)C(=O)N[C@@H](C)C(=O)N[C@@H](CCC(N)=O)C(=O)NC(C)(C)C(=O)N[C@@H](CC(=O)O)C(=O)N[C@@H](Cc1ccccc1)C(=O)N[C@H](C(=O)N[C@@H](CC(N)=O)C(=O)N[C@@H](Cc1c[nH]c2ccccc12)C(=O)N[C@@H](CC(C)C)C(=O)N[C@@H](CC(C)C)C(=O)N[C@@H](C)C(=O)N[C@@H](CCC(N)=O)C(=O)N[C@@H](CCCNC(=N)N)C(=O)NCC(=O)O)C(C)C)[C@@H](C)CC [Compound 294, Me-Y-Aib-E-G-T-F-I-S-D-Y-S-I-Aib-Km-D-R-Aib-A-Q-Aib-D-F-V-N-W-L-L-A-Q-R-G-OH]
- EC50 (human GLP-1R): 38.9 nM
- half-life [1]: 3540 min
- MRT last [1]: 97 h
- fraction unbound [2, 6]: < 0.002
- free unbound peptide in human plasma (in words) [2]: optimum free unbound peptide
- solubility (physchem; pH 7.4): ≥ 15 mg/mL
- solubility (physchem; pH 7.4, aqueous buffer): ≥ 30 mg/mL
- fraction unbound [3]: 0.0111

Molecule: CC[C@H](C)[C@H](NC(=O)[C@H](Cc1ccccc1)NC(=O)[C@@H](NC(=O)CNC(=O)[C@H](CCC(=O)O)NC(=O)C(C)(C)NC(=O)[C@H](Cc1ccc(O)cc1)NC)[C@@H](C)O)C(=O)N[C@@H](CO)C(=O)N[C@@H](CC(=O)O)C(=O)N[C@@H](Cc1ccc(O)cc1)C(=O)N[C@@H](CO)C(=O)N[C@H](C(=O)NC(C)(C)C(=O)N[C@@H](CC(C)C)C(=O)N[C@@H](CC(=O)O)C(=O)N[C@@H](CCCNC(=N)N)C(=O)NC(C)(C)C(=O)N[C@@H](C)C(=O)N[C@@H](CCC(N)=O)C(=O)NC(C)(C)C(=O)N[C@@H](CC(N)=O)C(=O)N[C@@H](Cc1ccccc1)C(=O)N[C@H](C(=O)N[C@@H](CC(N)=O)C(=O)N[C@@H](Cc1c[nH]c2ccccc12)C(=O)N[C@@H](CC(C)C)C(=O)N[C@@H](CC(C)C)C(=O)N[C@@H](C)C(=O)N[C@@H](CCC(N)=O)C(=O)N[C@@H](CCCCNC(=O)COCCOCCNC(=O)COCCOCCNC(=O)CC[C@H](NC(=O)CC[C@H](NC(=O)CCCCCCCCCCCCCCCC(=O)O)C(=O)O)C(=O)O)C(=O)N1CCC[C@H]1C(=O)N[C@@H](CO)C(=O)N[C@@H](CO)C(=O)NCC(=O)N[C@@H](C)C(=O)N1CCC[C@H]1C(=O)N1CCC[C@H]1C(=O)N1CCC[C@H]1C(=O)N[C@@H](CO)C(N)=O)C(C)C)[C@@H](C)CC [Compound 16] (H-[NMeY][Aib]EGTFISDYSI[Aib]LDR[Aib]AQ[Aib]NFVNWLLAQK([AEEA-AEEA-γGlu-γGlu-C17 diacid])PSSGAPPPS-NH2)
- MRT ([1]; 3 nmol/kg, read-out: mean residence time (MRT)): 59 h
- half-life [1]: 2280 min
- MRT last [1]: 59 h
- fraction unbound at 30 min, 1000 nmol/L [2, 6]: < 0.0012
- free unbound peptide in human plasma (in words) [2]: optimum free unbound peptide
- solubility (physchem; pH 7.4, aqueous buffer, pH 7.4 Phosphate Buffer - Solubility, 200 mM Phosphate buffer pH 7.4): ≥ 30 mg/mL
- solubility (physchem; pH 7.4, solubility in phosphate buffer at pH 7.4, 200 mM phosphate buffer pH 7.4): ≥ 15 mg/mL
- fraction unbound at 30 min, 1000 nmol/L [3]: ≤ 0.00116

Molecule: [NMeY][Aib]EGTFISDYSI[Aib]LDRK([AEEA-AEEA-γGlu-γGlu-C17 diacid])AQ[Aib]NFVNWLLAQRPSSGAPPPS-NH2 [Compound No. 15]
- Dog PPB (FUplasma), fraction unbound in plasma (fraction unbound) (dog plasma proteins): 0.0021
- Human PPB (FUplasma), fraction unbound in plasma (fraction unbound) (human plasma proteins): 0.0017
- Human GLP1R cAMP EC50, HEK293T [4]: 35.9 nM
- Human GIPR cAMP EC50, HEK293T [5]: 0.3 pM

Molecule: [NMeY][Aib]EGTFISDYSI[Aib]LDR[Aib]AQ[Aib]K([AEEA-AEEA-γGlu-γGlu-C17 diacid])FVNWLLAQRPSSGAPPPS-NH2 [Compound No. 13]
- Dog PPB (FUplasma), fraction unbound in plasma (fraction unbound) (dog plasma proteins): < 0.002
- Human PPB (FUplasma), fraction unbound in plasma (fraction unbound) (human plasma proteins): < 0.002
- Human GLP1R cAMP EC50, HEK293T [4]: 49 nM
- Human GIPR cAMP EC50, HEK293T [5]: 0.4 pM

Molecule: [NMeY][Aib]EGTFISDYSIALDR[Aib]AQ[Aib]K([AEEA-AEEA-γGlu-γGlu-C18 diacid])FVNWLLAQKG-OH [Compound No. 41]
- Dog PPB (FUplasma), fraction unbound in plasma (fraction unbound) (dog plasma proteins): 0.0007
- Human PPB (FUplasma), fraction unbound in plasma (fraction unbound) (human plasma proteins): < 0.002

Molecule: [NMeY][Aib]EGTFISDYSIALDR[Aib]AQ[Aib]K([AEEA-AEEA-γGlu-γGlu-C18 diacid])FVNWLLAQRG-OH [Compound No. 37]
- Dog PPB (FUplasma), fraction unbound in plasma (fraction unbound) (dog plasma proteins): 0.0012
- Human PPB (FUplasma), fraction unbound in plasma (fraction unbound) (human plasma proteins): 0.001
- Human GLP1R cAMP EC50, HEK293T [4]: 44.7 nM
- Human GIPR cAMP EC50, HEK293T [5]: 0.5 pM

Molecule: [NMeY][Aib]EGTFISDYSI[Aib]LDR[Aib]AQ[Aib]NFVNWLLAQK([AEEA-AEEA-γGlu-γGlu-C17 diacid])PSSGAPPPS-NH2 [Compound No. 16]
- Dog PPB (FUplasma), fraction unbound in plasma (fraction unbound) (dog plasma proteins): < 0.00116
- Human PPB (FUplasma), fraction unbound in plasma (fraction unbound) (human plasma proteins): < 0.0012
- Human GLP1R cAMP EC50, HEK293T [4]: 35.1 nM
- Human GIPR cAMP EC50, HEK293T [5]: 0.4 pM

Molecule: [NMeY][Aib]EGTFISDYSIALDR[Aib]AQ[Aib]K(2OEGgEgE‑C20 diacid)FVNWLLAQKG-OH [Compound No. 39]
- Dog PPB (FUplasma), fraction unbound in plasma (fraction unbound) (dog plasma proteins): 0.0015
- Human PPB (FUplasma), fraction unbound in plasma (fraction unbound) (human plasma proteins): 0.0112
- Human GLP1R cAMP EC50, HEK293T [4]: 13.2 nM
- Human GIPR cAMP EC50, HEK293T [5]: 1.7 pM

Molecule: [NMeY][Aib]EGTFISDYSIALDR[Aib]HQ[Aib]NFVNWLLAK([AEEA-AEEA-γGlu-γGlu-C18 diacid])R-NH2 [Compound No. 19]
- Dog PPB (FUplasma), fraction unbound in plasma (fraction unbound) (dog plasma proteins): 0.0005
- Human PPB (FUplasma), fraction unbound in plasma (fraction unbound) (human plasma proteins): 0.0011

Molecule: [NMeY][Aib]EGTFISDYSIALDR[Aib]AQ[Aib]K([AEEA-AEEA-γGlu-γGlu-C17 diacid])FVNWLLAQRG-OH [Compound No. 36]
- Dog PPB (FUplasma), fraction unbound in plasma (fraction unbound) (dog plasma proteins): 0.0034
- Human PPB (FUplasma), fraction unbound in plasma (fraction unbound) (human plasma proteins): < 0.002
- Human GLP1R cAMP EC50, HEK293T [4]: 87.1 nM
- Human GIPR cAMP EC50, HEK293T [5]: 0.7 pM

Molecule: [NMeY][Aib]EGTFISDYSI[Aib]LDR[Aib]AQ[Aib]NFVNWLLAQK([AEEA-AEEA-γGlu-γGlu-C18 diacid])PSSGAPPPS-NH2 [Compound No. 27]
- Dog PPB (FUplasma), fraction unbound in plasma (fraction unbound) (dog plasma proteins): < 0.002
- Human PPB (FUplasma), fraction unbound in plasma (fraction unbound) (human plasma proteins): 0.0013
- Human GLP1R cAMP EC50, HEK293T [4]: 87.1 nM
- Human GIPR cAMP EC50, HEK293T [5]: 0.4 pM

Molecule: [NMeY][Aib]EGTFISDYSI[Aib]LDR[Aib]AQ[Aib]K([2OEGgEgE-C18 diacid])FVNWLLAQRG-OH [Compound No. 72]
- Dog PPB (FUplasma), fraction unbound in plasma (fraction unbound) (dog plasma proteins): 0.0062
- Human PPB (FUplasma), fraction unbound in plasma (fraction unbound) (human plasma proteins): 0.0036
- Human GLP1R cAMP EC50, HEK293T [4]: 43.2 nM
- Human GIPR cAMP EC50, HEK293T [5]: 0.5 pM
